Experimental data: US20260355310A1, “TREATMENT OF IGA NEPHROPATHY USING AN ENDOTHELIN RECEPTOR ANTAGONIST AND APRIL BINDING ANTIBODY” (CHINOOK THERAPEUTICS, INC., priority 2022, published 2026)

Legend:
[1] = system: endothelin A (ETA) receptor; settings: cited from earlier work
ETB receptor = settings: Wu-Wong et al. 2002; cited from earlier work
[2] = Oxidation reduction potential; type: physicochemical
[3] = system: patients with diabetic kidney disease (DKD); settings: Heerspink et al. 2019; cited from earlier work
IgA nephropathy patients = settings: DAPA-CKD subanalysis; Wheeler et al. 2021; cited from earlier work
[4] = system: human B cell maturation antigen (BCMA) / human APRIL; assay: Blocking of APRIL binding to BCMA
healthy human volunteers = assay: Immunoglobulin levels in healthy volunteers; type: in vivo
Text: (§1) A humanized APRIL antagonistic monoclonal antibody (anti-APRIL antibody, as described herein) is in development for the treatment of IgAN, having undergone clinical trials in healthy volunteers (see clinicaltrials.gov NCT03945318). […] In addition, this blockade reduced Gd-IgAQ1 in healthy human volunteers. Consequently, it is expected that blockade of APRIL in patients with IgAN will lead to a reduction in levels of IgA, IgG, and IgM and corresponding reductions in gd-IgA1, auto-antibodies to gd-IgA1, immune complex deposition and renal damage.

[5] = system: transmembrane activator and calcium modulator and cyclophilin ligand interactor (TACI) / human APRIL; settings: receptors on lymphocytes; Guadagnoli 2011; cited from earlier work
patients with IgAN = assay: Phase 1/2 clinical study in patients with IgAN, interim results; type: in vivo, human
Text: BION-1301 has been studied in adults with relapsed or refractory multiple myeloma as well as healthy volunteers (HVs) and adults with IgAN. Since the initiation of the BION-1301 clinical program through 26 Jul. 2022, a total of 153 adults have been enrolled in 5 clinical studies. […] Gd-IgA1, and proteinuria (as measured by areduction in UPCR).
BION-1301 has been studied in adults with relapsed or refractory multiple myeloma as well as healthy volunteers (HVs) and adults with IgAN. Since the initiation of the BION-1301 clinical program through 26 Jul. 2022, a total of 153 adults have been enrolled in 5 clinical studies.

[6] = system: transmembrane activator and calcium modulator and cyclophilin ligand interactor (TACI) / human APRIL; assay: Blocking of APRIL binding to TACI
BAFF = assay: Binding to BAFF; settings: BION-1301
[7] = system: healthy cynomolgus monkeys; assay: Immunoglobulin levels in healthy cynomolgus monkeys; type: in vivo
Text: as §1

[8] = system: human B cell maturation antigen (BCMA) / human APRIL; settings: receptors on lymphocytes; Guadagnoli 2011; cited from earlier work
[9] = IV 450 mg Q2W, patients with IgAN, interim results
[10] = SC 600 mg Q2W after at least 24 weeks of IV administration

CCCCN(CCCC)C(=O)CN1C[C@H](c2ccc3c(c2)OCO3)[C@@H](C(=O)O)[C@@H]1c1ccc(OC)cc1 [Atrasentan, (2R,3R,4S)-4-(1,3-benzodioxol-5-yl)-1-[2-(dibutylamino)-2-oxoethyl]-2-(4-methoxyphenyl)pyrrolidine-3-carboxylic acid]
selectivity for ETA relative to ETB ([1]; ETA inhibitor, ETA relative to ETB, literature): about 1,860 times | ETA selectivity ([1]; ETA relative to ETB, Wu-Wong et al. 2002): ~ 1800 x | Ki ([1]; Wu-Wong et al. 2002): ~0.034 nM | Ki (ETB receptor): ~63 nM | oxidation reduction potential [2]: about 900 mV | risk of renal events (doubling of serum creatinine or end-stage kidney disease) [3]: significantly reducing the risk of renal events

CCOc1ccc(Cc2cc([C@@H]3O[C@H](CO)[C@@H](O)[C@H](O)[C@H]3O)ccc2Cl)cc1 [dapagliflozin]
safety and efficacy as addition to standard of care in IgA nephropathy (IgA nephropathy patients): may be a safe and effective addition to current standard of care in IgA nephropathy

B1: BION-1301: IgG4 humanized monoclonal antibody having CAS Registry No. 2642175-46-8; SEQ ID NO: 28 for the heavy chain and SEQ ID NO: 30 for the light chain (antibody, chains of the INN, looked up, V domains shown)
VH: QVQLVQSGAEVKKPGASVKVSCKASGYTFTDYTIHWVRQATGQGLEWMGWIYPLRGSINYAQKFQGRVTMTADKSISTVYMELSSLRSEDTAVYFCARHGAYYSNAFDYWGQGTLVTVSS
VL: EIVMTQSPATLSVSPGERATLSCRASESVDNDGIRFLHWYQQKPGQAPRLLIYRASTRATGIPARFSGSGSRTEFTLTISSLQSEDFAVYYCQQSNKDPYTFGGGTKVEIK
blocks binding of human APRIL to BCMA [4]: blocks the binding | Gd-IgA1 (healthy human volunteers; healthy human volunteers): reduced | levels of IgA (healthy human volunteers; healthy volunteers): significantly reduce the levels of IgA | blocks interaction of APRIL with TACI [5]: effectively blocks | Gd-IgA1 (patients with IgAN; [9]): sustained reductions | free (unbound) APRIL (patients with IgAN; [9]): sustained reductions | proteinuria (as measured by reduction in UPCR) (patients with IgAN; [9]): sustained reductions | tolerability (patients with IgAN; [9]): well-tolerated | BION-1301 exposures after transition to SC dosing (patients with IgAN; [10]): maintained similar BION-1301 exposures | biomarker responses after transition to SC dosing (patients with IgAN; [10]): maintained similar BION-1301 exposures, biomarker responses | proteinuria reductions after transition to SC dosing (patients with IgAN; [10]): maintained similar BION-1301 exposures, biomarker responses and proteinuria reductions | serum BION-1301 concentrations (patients with IgAN; following IV infusion, patients with IgAN vs healthy volunteers at same dose and schedule): appeared comparable to those observed in healthy volunteers at the same dose and schedule | 24-hour UPCR (patients with IgAN; patients treated with BION-1301, on average): reduction in 24-hour UPCR which was evident by 3 months and continue to decline beyond 1 year | blocks binding of human APRIL to TACI [6]: blocks the binding | binding to BAFF (BAFF): does not bind BAFF | IgA [7]: significantly lower | IgM [7]: significantly lower | blocks interaction of APRIL with BCMA [8]: effectively blocks
